Results: patent publication US20250206837A1 (ELIXIRON IMMUNOTHERAPEUTICS HONG KONG, published 2025)
Where a chain is given by its changes, count along the chain named. In names and notes the source's numbering stands. Several values for one entry are separate records, joined by “and”; a condition that tells them apart may be missing. Identical values can stand only once.

B1: 12P109 (antibody, human IgG1, kappa, N297A, V domains shown)
VH: EVQLVESGGGLVQPGGSLRLSCAASGFTISSFGIHWVRQAPGKGLEWVAWIAPYGGYTYYADSVKGRFTISADTSKNTAYLQMNSLRAEDTAVYYCARSFFGYFDYWGQGTLVTVSS
VL: DIQMTQSPSSLSASVGDRVTITCRASQDVSNWVAWYQQKPGKAPKLLISTSTSLYSGVPSRFSGSGSGTDFTLTISSLQPEDFATYYCQQYYTLPFTFGQGTKVEIKR
notes: Full-length human IgG1-N297A, kappa; also called 12P109 (IgG1)
B2: 117_DA57D (antibody, V domains shown)
VH: B1 VH with S30D, S31A, Y57D
VL: B1 VL with T50Y, S51A, Y91H, Y92S, T93N, L94A, F96L
notes: full-length IgG, human kappa
B3: 117_AA57D (antibody, V domains shown)
VH: B1 VH with S30A, S31A, Y57D
VL: B1 VL with T50Y, S51A, Y91H, Y92S, T93N, L94A, F96L
notes: full-length IgG, human kappa
B4: 117_AA57E (antibody, V domains shown)
VH: B1 VH with S30A, S31A, Y57E
VL: B1 VL with T50Y, S51A, Y91H, Y92S, T93N, L94A, F96L
notes: full-length IgG, human kappa
B5: 57T (antibody, V domains shown)
VH: B1 VH with Y57T
VL: B1 VL with T50Y, S51A, Y91H, Y92S, T93N, L94A, F96L
notes: the sheet prints only 57T
B6: A8A (antibody, human IgG1, kappa, N297A, V domains shown)
VH: B1 VH
VL: B1 VL with T50Y, S51A, T52N, Y91H, Y92S, T93N, F96L
notes: Full-length human IgG1-N297A, kappa; also called A8A (IgG1)
B7: 117_101Y (antibody, V domains shown)
VH: B1 VH with F101Y
VL: B1 VL with T50Y, S51A, Y91H, Y92S, T93N, L94A, F96L
notes: full-length IgG, human kappa
B8: 117_DA57E (antibody, V domains shown)
VH: B1 VH with S30D, S31A, Y57E
VL: B1 VL with T50Y, S51A, Y91H, Y92S, T93N, L94A, F96L
notes: full-length IgG, human kappa
B9: 117_57D (antibody, V domains shown)
VH: B1 VH with Y57D
VL: B1 VL with T50Y, S51A, Y91H, Y92S, T93N, L94A, F96L
notes: full-length IgG, human kappa
B10: 117_101H (antibody, V domains shown)
VH: B1 VH with F101H
VL: B1 VL with T50Y, S51A, Y91H, Y92S, T93N, L94A, F96L
notes: full-length IgG, human kappa
B11: 117_101S (antibody, V domains shown)
VH: B1 VH with F101S
VL: B1 VL with T50Y, S51A, Y91H, Y92S, T93N, L94A, F96L
notes: full-length IgG, human kappa
B12: 117_57E (antibody, V domains shown)
VH: B1 VH with Y57E
VL: B1 VL with T50Y, S51A, Y91H, Y92S, T93N, L94A, F96L
notes: full-length IgG, human kappa
B13: 117_30DA (antibody, V domains shown)
VH: B1 VH with S30D, S31A
VL: B1 VL with T50Y, S51A, Y91H, Y92S, T93N, L94A, F96L
notes: full-length IgG, human kappa

Experiments:
[1] = target: T1, Recombinant His-tagged mouse CD36.ECD protein (Sino Biological) (mouse, UniProt Q08857 30-439); experiment: ELISA, coated His-tagged mouse CD36.ECD
T1 construct: Bought protein; also called mCD36.ECD; mCD36; not shown: His tag
T1 sequence (Q08857 30-439 limits assumed): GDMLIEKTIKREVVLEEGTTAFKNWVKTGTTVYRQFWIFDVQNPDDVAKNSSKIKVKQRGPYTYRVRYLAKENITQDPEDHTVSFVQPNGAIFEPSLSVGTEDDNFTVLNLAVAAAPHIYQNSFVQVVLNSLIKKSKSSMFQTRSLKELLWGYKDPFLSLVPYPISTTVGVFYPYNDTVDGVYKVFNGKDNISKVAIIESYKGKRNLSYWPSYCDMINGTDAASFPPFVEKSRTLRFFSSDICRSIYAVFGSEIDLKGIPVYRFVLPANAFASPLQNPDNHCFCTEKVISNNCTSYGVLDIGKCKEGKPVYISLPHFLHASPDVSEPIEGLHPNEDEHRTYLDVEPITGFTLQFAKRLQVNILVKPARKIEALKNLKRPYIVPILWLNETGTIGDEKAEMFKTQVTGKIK
Procedure: (§1) ELISA materials and methods: Recombinant His-tagged human CD36.ECD protein or His-tagged mouse CD36.ECD protein (both from Sino Biological) was immobilized on 96 well microtiter plate at a concentration of 1 μg/mL in Coating Solution (SeraCare) overnight at 4° C. The wells were washed with wash solution (0.05% Tween20 in PBS) and blocked with 1% BSA in PBS. Serial dilutions of anti-CD36 antibodies were added to wells. After incubation at 37° C. for 1 h, the wells were washed with wash solution. Peroxidase-conjugated Goat anti-human kappa Light chain antibody (Sigma) was applied to each well at 37° C. for 1 h incubation. After washing, the wells were developed with TMB substrate for 5-10 min at room temperature and then stopped with 1 N HCl. Thereafter absorbance was measured at 450 nm and 650 nm. EC50 values were calculated through GraphPad Prism7.
(§2) Results: ELISA data plots showing binding to either human CD36.ECD or mouse CD36.ECD are depicted in FIG. 1A and FIG. 1B, respectively, for the full-length IgG anti-CD36 antibody 12P109, and additional positive clones, 12P102, 12P103, 12P104, 12P105, 12P106, 12P107, 12P110 and 12P212.

[2] = target: T2, Recombinant His-tagged human CD36.ECD protein (Sino Biological) (human, UniProt P16671 30-439); experiment: ELISA, coated His-tagged human CD36.ECD
T2 construct: Bought protein; also called hCD36.ECD; hCD36; not shown: His tag
T2 sequence (P16671 30-439 limits assumed): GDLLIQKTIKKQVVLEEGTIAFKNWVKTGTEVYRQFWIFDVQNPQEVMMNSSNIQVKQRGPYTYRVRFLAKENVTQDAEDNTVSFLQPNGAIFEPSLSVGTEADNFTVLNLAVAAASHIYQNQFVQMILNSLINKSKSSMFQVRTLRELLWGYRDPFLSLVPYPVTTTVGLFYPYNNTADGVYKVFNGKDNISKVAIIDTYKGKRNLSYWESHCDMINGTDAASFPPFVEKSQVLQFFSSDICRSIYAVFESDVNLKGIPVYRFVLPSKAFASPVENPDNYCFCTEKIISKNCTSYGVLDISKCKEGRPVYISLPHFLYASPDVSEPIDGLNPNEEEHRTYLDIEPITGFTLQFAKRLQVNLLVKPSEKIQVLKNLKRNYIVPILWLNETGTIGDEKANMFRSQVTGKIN
Procedure: as §1, §2

[3] = target: T1, Recombinant His-tagged mouse CD36.ECD …; experiment: ELISA, coated mouse CD36.ECD (FIG. 1D)
Procedure: as §1
(§3) ELISA data plots showing binding of anti-CD36 antibodies to recombinant human CD36.ECD or mouse CD36.ECD coated on ELISA plates are depicted in FIG. 1C and 1D, respectively.

[4] = target: T2, Recombinant His-tagged human CD36.ECD …; experiment: BLI (Octet), antibody on AHC sensor, His-tagged hCD36.ECD in solution, 1:1 fit
Procedure: BLI assay materials and method: Kinetic rate constants, ka and kd, for binding of the anti-CD36 antibodies to human CD36 were measured by Bio-Layer Interferometry (BLI) (ForteBio Octet RED96). […] Rate constants were calculated by curve fitting analyses (1:1 Langmuir model) of binding response with a 2.5-minute association and 5-minute dissociation interaction time.

[5] = target: T2, Recombinant His-tagged human CD36.ECD …; experiment: ELISA, coated human CD36.ECD (FIG. 1C)
Procedure: as §1, §3

[6] = target: T3, full-length human CD36-Flag overexpressed on stable F293 cells (human, UniProt P16671 2-472); experiment: cell-based or functional assay
T3 sequence (P16671 2-472): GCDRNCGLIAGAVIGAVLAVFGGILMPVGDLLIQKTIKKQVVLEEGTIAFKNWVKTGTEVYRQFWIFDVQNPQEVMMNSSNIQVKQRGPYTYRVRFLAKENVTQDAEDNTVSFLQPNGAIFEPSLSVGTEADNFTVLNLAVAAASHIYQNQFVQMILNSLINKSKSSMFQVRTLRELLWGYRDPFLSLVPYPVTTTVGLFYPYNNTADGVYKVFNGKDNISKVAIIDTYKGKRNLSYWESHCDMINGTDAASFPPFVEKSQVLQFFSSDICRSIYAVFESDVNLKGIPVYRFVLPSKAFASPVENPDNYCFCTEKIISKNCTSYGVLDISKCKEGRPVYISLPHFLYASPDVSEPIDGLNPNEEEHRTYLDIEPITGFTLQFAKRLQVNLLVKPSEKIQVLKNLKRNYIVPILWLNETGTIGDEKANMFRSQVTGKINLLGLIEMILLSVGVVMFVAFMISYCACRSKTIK

[7] = target: T4, mouse CD36-His overexpressed on stable F293 cells (mouse, UniProt Q08857 1-472); experiment: cell-based or functional assay
T4 sequence (Q08857 whole entry, the tested form may be a part): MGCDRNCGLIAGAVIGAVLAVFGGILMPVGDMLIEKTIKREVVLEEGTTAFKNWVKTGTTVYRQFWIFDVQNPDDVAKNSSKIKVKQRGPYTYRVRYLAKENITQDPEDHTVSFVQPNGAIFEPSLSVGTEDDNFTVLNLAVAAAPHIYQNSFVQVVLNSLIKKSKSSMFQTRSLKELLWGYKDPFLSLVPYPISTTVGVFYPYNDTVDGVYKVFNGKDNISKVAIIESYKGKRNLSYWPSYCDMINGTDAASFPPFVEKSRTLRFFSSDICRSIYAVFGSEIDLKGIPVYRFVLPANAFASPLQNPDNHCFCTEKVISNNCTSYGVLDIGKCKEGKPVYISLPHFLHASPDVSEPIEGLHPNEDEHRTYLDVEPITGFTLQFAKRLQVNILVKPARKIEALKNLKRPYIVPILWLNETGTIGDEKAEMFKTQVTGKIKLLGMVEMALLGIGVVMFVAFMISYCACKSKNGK

[8] = target: T2, Recombinant His-tagged human CD36.ECD …; experiment: ELISA, coated human CD36.ECD (FIG. 2A)
Procedure: as §1
(§4) The competitor anti-CD36 antibody ONA, which is derived from clone “ONA-0-v1” as disclosed in WO2021176424A1 in hIgG4-S228P-FALA format.

[9] = target: T5, rhesus CD36-His overexpressed on stable F293 cells (rhesus, UniProt P16671 2-472 (human entry)); experiment: flow cytometry, F293 cells overexpressing rhesus CD36
T5 construct: Gene segment from Sino Biological; also called F293/rhesusCD36; not shown: His tag
T5 sequence (P16671 other isoform, or with tags, fused parts or gaps): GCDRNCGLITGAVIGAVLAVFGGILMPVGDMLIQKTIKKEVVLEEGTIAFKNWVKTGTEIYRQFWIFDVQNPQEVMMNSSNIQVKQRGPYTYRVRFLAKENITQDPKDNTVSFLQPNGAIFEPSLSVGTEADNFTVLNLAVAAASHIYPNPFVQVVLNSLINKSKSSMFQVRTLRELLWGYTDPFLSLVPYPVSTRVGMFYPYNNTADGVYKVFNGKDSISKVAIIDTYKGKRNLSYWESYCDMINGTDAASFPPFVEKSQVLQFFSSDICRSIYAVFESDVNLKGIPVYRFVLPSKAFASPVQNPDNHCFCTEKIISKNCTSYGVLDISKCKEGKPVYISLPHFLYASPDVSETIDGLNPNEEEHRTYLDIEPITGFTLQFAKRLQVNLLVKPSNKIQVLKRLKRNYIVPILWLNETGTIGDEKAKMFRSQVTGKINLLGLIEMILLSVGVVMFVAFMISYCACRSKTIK
Text: (§5) After washing with FACS buffer (2% FBS in PBS), the cells were stained with anti-human IgG-Alexa Fluor 647 and analyzed by Attune NxT Flow Cytometer (Thermo Scientific).

[10] = target: T2, Recombinant His-tagged human CD36.ECD …; experiment: ELISA, coated human CD36.ECD (FIG. 2D)
Procedure: as §1, §4

[11] = target: T4, mouse CD36-His overexpressed on stable …; experiment: flow cytometry, F293 cells overexpressing mouse CD36
Text: as §5

[12] = target: T3, full-length human CD36-Flag …; experiment: flow cytometry, F293 cells overexpressing human CD36
Text: as §5

[13] = target: T2, Recombinant His-tagged human CD36.ECD …; experiment: ELISA, coated human CD36.ECD (FIG. 2F)
Procedure: as §1, §4

[14] = target: T2, Recombinant His-tagged human CD36.ECD …; experiment: hCD36 ELISA, plate coated with human CD36.ECD, antibody titrated, OD (450-650) nm
Procedure: as §1, §4

[15] = target: T2, Recombinant His-tagged human CD36.ECD …; experiment: ELISA, coated human CD36.ECD (FIG. 2E)
Procedure: as §1, §4

[16] = target: T2, Recombinant His-tagged human CD36.ECD …; experiment: ELISA, coated human CD36.ECD (FIG. 2C)
Procedure: as §1, §4

Row | Binder | oxLDL uptake IC50 (nM), F293/hCD36 [6] [nM] | oxLDL uptake IC50 (nM), F293/mCD36 [7] [nM] | EC50 [9] | EC50 [11] | EC50 [12] | EC50 [13] [nM] | other results
1 | B1 | 0.401 | 0.86 |  |  |  |  | EC50 [1]: 0.137 nM; EC50 [2]: 0.213 nM; EC50 [3]: 9.45 nM; Kd [4]: 18.5 nM; koff [4]: 0.00963 s⁻¹; kon [4]: 522000 M⁻¹ s⁻¹; EC50 [5]: 43.2 nM; EC50 [8]: 1.53 nM
2 | B2 | 0.332 |  | 0.416 µg/mL | 0.271 µg/mL | 0.089 µg/mL |  | EC50 [10]: 0.049 nM
3 | B3 |  |  |  |  |  | 0.192 | 
4 | B4 |  |  |  |  |  | 0.251 | 
5 | B5 |  |  |  |  |  |  | binding result [14]: no binding (tested: about 20 nM)
6 | B6 |  |  |  |  |  |  | EC50 [3]: 0.94 nM; Kd [4]: 3.42 nM; koff [4]: 0.00462 s⁻¹; kon [4]: 1.35e+06 M⁻¹ s⁻¹; EC50 [5]: 5.17 nM
7 | B7 |  |  |  |  |  |  | EC50 [15]: 0.355 nM
8 | B8 | 0.306 |  | 0.563 µg/mL and 0.671 µg/mL | 0.425 µg/mL and 0.375 µg/mL | 0.109 µg/mL and 0.0968 µg/mL | 0.19 | EC50 [10]: 0.0539 nM
9 | B9 | 0.349 | 0.783 | 0.397 µg/mL | 0.309 µg/mL | 0.111 µg/mL |  | EC50 [8]: 0.0529 nM
10 | B10 |  |  |  |  |  |  | EC50 [15]: 1.6 nM
11 | B11 |  |  |  |  |  |  | EC50 [15]: 0.929 nM
12 | B12 | 0.419 | 0.796 | 0.419 µg/mL and 0.362 µg/mL | 0.331 µg/mL and 0.279 µg/mL | 0.11 µg/mL and 0.091 µg/mL | 0.206 | EC50 [8]: 0.0492 nM
13 | B13 | 0.691 | 1.07 | 1.04 µg/mL | 0.488 µg/mL | 0.157 µg/mL |  | EC50 [10]: 0.0803 nM; EC50 [16]: 0.137 nM
